# Experimental data taken from patent publication US20180258175A1 (ABLEXIS, published 2018).
# B1: CCK-407A (antibody, V domains shown)
# VH: QVQLQESGPGLVKPSETLSLTCTVSGGSISSYYWSWIRQPAGKGLEWIGHIFSSGSTNYNPSLKSRVTMSVDTSKSQFSLKLSSVTAADTAVYLCARGGVTWFDPWGQGTLVTVSS
# VL: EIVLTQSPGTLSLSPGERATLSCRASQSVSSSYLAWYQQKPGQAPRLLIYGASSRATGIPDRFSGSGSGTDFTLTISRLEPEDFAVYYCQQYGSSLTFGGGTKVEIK
# notes: AlivaMab chimeric IgG, human kappa LC
# B2: 487 (Table 4, bin 3 block) (antibody, V domains shown)
# VH: QVQLQESGPGLVKPSETLSLTCTVSGGSISSYYWSWIRQPAGKGLEWIGHIFSSGSTNYNPSLKSRVTMSVDTSKSQFSLKLSSVTAADTAVYLCARGGVTWFDPWGQGTLVTVSS
# VL: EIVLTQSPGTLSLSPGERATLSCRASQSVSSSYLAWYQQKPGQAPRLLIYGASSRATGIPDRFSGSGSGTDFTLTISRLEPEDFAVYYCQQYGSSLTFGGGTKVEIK
# notes: not tied
# B3: CCK-519A (antibody, V domains shown)
# VH: not shown
# VL: DIVMTQTPLSLPVTPGEPASISCRSSQSLLDSDDGNTYLDWYLQKPGQSPQLLIYTLSYRASGVPDRFSGSGSGTDFTLKISRVEAEDVGVYYCMQRIEFPITFGQGTRLEIK
# notes: as for B1
# B4: CCK-533A (antibody, V domains shown)
# VH: QVQLVQSGAEVKKPGASVKVSCKASGYTFTGYYMHWVRQAPGQGLEWMGRINPNSGGTYYAQKFQGRVTMTRDTSISTAYVELSRLRSDDTAVYYCARKNPWGHFDYWGQGTLVTVSS
# VL: DIVMTQTPLSLPVTPGEPASISCRSSQSLLDSDDGNTYLDWYLQKPGQSPQLLIYTLSYRASGVPDRFSGSGSGTDFTLKISRVEAEDVGVYYCMQRIEFPYTFGQGTKLEIK
# notes: as for B1
# B5: CCK-467A (antibody, V domains shown)
# VH: EVQLVESGGGLVKPGGSLRLSCAASGFTFSSYSMNWVRQAPGKGLEWVSSISSSSSYIYYADSVKGRFTISRDNAKNSLFLQMNSLRAEDTAVYYCARGGSFPYNWFDPWGQGTLVTVSS
# VL: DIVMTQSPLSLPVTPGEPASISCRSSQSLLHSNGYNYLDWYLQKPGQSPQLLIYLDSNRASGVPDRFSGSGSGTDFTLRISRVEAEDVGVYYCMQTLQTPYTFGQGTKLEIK
# notes: as for B1
# B6: CCK-456A (antibody, V domains shown)
# VH: EVHLVESGGGLVKPGGSLRLSCAASGFTFSSYSMNWFRQAPGKGLEWVSSISSSSSYIYYADSVKGRFTISRDNAKNSLSLQMNSLRAEDTAVYYCARAGAVAALYNWFDPWGQGTLVTVSS
# VL: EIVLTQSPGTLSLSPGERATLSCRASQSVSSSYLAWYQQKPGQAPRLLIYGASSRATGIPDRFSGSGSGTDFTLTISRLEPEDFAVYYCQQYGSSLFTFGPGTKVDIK
# notes: as for B1
# B7: CCK-418A (antibody, V domains shown)
# VH: QVQLQESGPGLVKPSETLSLTCTVSGGSISSYYWSWIRQPAGKGLEWIGRIYTSGTTNFNPSLKSRVTMSVDTSKNQFSLKLSSVTAADTAVYYCATLSGTNWGSPFDYWGQGTLVTVSS
# VL: not shown
# notes: as for B1
# B8: CCK-539A (antibody, V domains shown)
# VH: QVQLVESGGGVVQPGRSLRLSCAASGFTFSTFAMHWVRQAPGKGLEWVAVISYDGSNKYYVDSVKGRFTISRDNSKNTLYLQMNSLRAEDTAMYYCARDGTGDALDIWGQGTMVTVSS
# VL: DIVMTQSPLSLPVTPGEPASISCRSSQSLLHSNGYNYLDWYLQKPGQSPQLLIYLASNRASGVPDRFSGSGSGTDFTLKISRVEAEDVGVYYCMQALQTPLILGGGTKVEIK
# notes: as for B1
# Experiments:
# [1] = target: T1, human CD115 extracellular domain (Sino Biological 10161-H08H) (human, UniProt P07333 20-517); assay: SPR ProteOn, supernatant mAb captured on anti-mouse IgG, Hu CD115 analyte
# T1 construct: extracellular domain; bought recombinant protein; also called huCD115; hu-CD115
# [2] = target: T1, human CD115 extracellular domain (Sino …); assay: competition ELISA, competitor TMR 24A;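 note: clonal anti-huCD115 hybridoma supernatant antibodies bound with a competitor mouse antibody present, and failure to bind puts a clone in that competitor's epitope bin; low signal means same epitope bin as the mouse competitor antibody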
# [3] = target: T1, human CD115 extracellular domain (Sino …); assay: competition ELISA, competitor TMR 100A;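 note: clonal anti-huCD115 hybridoma supernatants tested for binding with the competitor antibody present, clones failing to bind are assigned to the competitor's epitope bin; low signal means same epitope bin as the mouse competitor antibody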
# [4] = target: T1, human CD115 extracellular domain (Sino …); assay: competition ELISA, competitor TMR 95A;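 note: clonal anti-huCD115 hybridoma supernatants tested for binding while a competitor mouse antibody is present, where failure to bind assigns them to that competitor's epitope bin; low signal means same epitope bin as the mouse competitor antibody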
# [5] = target: T1, human CD115 extracellular domain (Sino …); assay: competition ELISA, competitor TMR 35A;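 note: clonal hybridoma supernatant antibodies added to wells after the competitor mouse antibody, lost binding signal puts an antibody in that competitor's epitope bin; low signal means same epitope bin as the mouse competitor antibody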
# [6] = target: T1, human CD115 extracellular domain (Sino …); assay: competition ELISA, competitor TMR 44B
# [7] = target: T1, human CD115 extracellular domain (Sino …); assay: competition ELISA, competitor TMR 20A
Binder,Kd [1] [nM],koff [1] [s⁻¹],kon [1] [M⁻¹ s⁻¹],signal vs NO COMP=100 [2] [%],signal vs NO COMP=100 [3] [%],signal vs NO COMP=100 [4] [%],signal vs NO COMP=100 [5] [%],signal vs NO COMP=100 [6] [%],signal vs NO COMP=100 [7] [%]
B1,0.95,6.54e-05,69000,,,,,,
B2,,,,86,103,84,6,94,97
B3,0.86,7.71e-05,90000,110,118,36,110,12,6
B4,0.317,3.92e-05,124000,,,,,,
B5,0.65,1.48e-05,23000,58,102,46,83,22,96
B6,1.97,5.3e-05,27000,42,96,27,64,27,73
B7,0.158,2.11e-05,133000,35,106,10,82,3,89
B8,2.7,8.5e-05,32000,,,,,,
